Legend:
Experiment in all cases: SPR (Biacore)
BCMA 101 x CD3 = target: BCMA 101 x CD3
BC 244-C6 x CD3 = target: BC 244-C6 x CD3
BC 247-C3 x CD3 = target: BC 247-C3 x CD3

Kd (BCMA 101 x CD3): 0.5 nM
Kd (BC 244-C6 x CD3): 0.3 nM
Kd (BC 247-C3 x CD3): 0.4 nM
B1: Human BCMA (receptor)
chain (part 1 of 2): MLQMAGQCSQNEYFDSLLHACIPCQLRCSSNTPPLTCQRYCNASVTNSVKGTNASGGGGSEAHKSEIAHRYNDLGEQHFKGLVLIAFSQYLQKCSYDEHAKLVQEVTDFAKTCVADESAANCDKSLHTLFGDKLCAIPNLRENYGELADCCTKQEPERNECFLQHKDDNPSLPPFERPEAEAMCTSFKENPTTFMGHYLHEVARRHPYFYAPELLYYAEQYNEILTQCCAEADKESCLTPKLDGVKEKALVSSVRQRMKCSSMQKFGERAFKAWAVARLSQTFPNADFAEITKLATDLTKVNKECCHGDLLECADDRAELAKYMCENQATISSKLQTCCDKPLLKKAHCLSEVEHDTMPADLPAIAADFVEDQEVCKNYAEAKDVFLGTFLYEYSRRHPDYSVSLLLRLAKKYEATLEKCCAEANPPACYGTVLAEFQPLVEEPKNLVKTNCDLYEKLGEYGFQNAILVRYTQKAPQVSTPTLVEAARNLGRVGTKCCTLPEDQRLPCVEDYLSAILNRVCLLHEKTPVSEHVTKCCSGSLVERRPCFSALTVDETYVPKEFKAETFTFHSDICTLPEKEKQIKKQTALAELVKHKPKATAEQLKTVMDDFAQFLDTCCKAADKDTCFSTEGPNLVTRCKDALA
chain (part 2 of 2): SGHHGGHHGGHH

From patent US20160176973A1 (published 2016)
